Assay [1] deals with rHuman EGF R/Fc Chimera, CF (R&D Systems Cat#344-ER) (human) (UniProt P00533). The experiment in a line: ECL (MSD) multispot binding assay, antigen spotted on the plate, Fab in solution; blank spot of this well 213.
Assay [2] has as its target rHuman HGF R/c-MET/Fc Chimera, CF (R&D Systems Cat#358-MT/CF) (human) (UniProt P08581). Described as above.
The target in assay [3] is rHuman CD44/Fc Chimera, CF (R&D Systems Cat#3660-CD) (human) (UniProt P16070). Described as above.
The target in assay [4] is rHuman ErbB2/Fc Chimera, CF (R&D Systems Cat#1129-ER) (human) (UniProt P04626). The description is as above.
For assay [5], the target named is rHuman Notch-1/Fc Chimera, CF (R&D Systems Cat#3647-TK) (human) (UniProt P46531). Described as above.
The target of assay [6] is rHuman IGF-1 sR, CF (R&D Systems Cat#391-GR) (human) (UniProt P08069). The description is as above.
Assay [7] has as its target rHuman CD44/Fc Chimera, CF (R&D Systems Cat#3660-CD) (human) (UniProt P16070). The experiment in a line: MSD Multispot ECL, antigen spotted on plate, Fab in solution; blank spot of the row 240.
Assay [8] deals with rHuman IGF-1 sR, (IGF-1 sR), CF (R&D Systems Cat#391-GR) (human) (UniProt P08069). Described as above.
For assay [9], the target named is rHuman ErbB2/Fc Chimera, CF (R&D Systems Cat#1129-ER) (human) (UniProt P04626). The description is as above.
In assay [10] the target is rHuman CD44/Fc Chimera, CF (R&D Systems Cat#3660-CD) (human) (UniProt P16070). The experiment in a line: MSD Multispot ECL, antigen spotted on plate, Fab in solution; blank spot of the row 424.
For assay [11], the target named is rHuman IGF-1 sR, (IGF-1 sR), CF (R&D Systems Cat#391-GR) (human) (UniProt P08069). The assay is described as above.
For assay [12], the target named is rHuman ErbB2/Fc Chimera, CF (R&D Systems Cat#1129-ER) (human) (UniProt P04626). The assay is described as above.
Assay [13] addresses rHuman EGF R/Fc Chimera, CF (R&D Systems Cat#344-ER) (human) (UniProt P00533). The experiment in a line: ECL multispot (MSD) binding assay, antigen spotted on plate, Fab in solution; blank spot 321.
Assay [14] deals with rHuman HGF R/c-MET/Fc Chimera, CF (R&D Systems Cat#358-MT/CF) (human) (UniProt P08581). The description is as above.
Assay [15] addresses rHuman CD44/Fc Chimera, CF (R&D Systems Cat#3660-CD) (human) (UniProt P16070). The assay is described as above.
Assay [16] deals with rHuman ErbB2/Fc Chimera, CF (R&D Systems Cat#1129-ER) (human) (UniProt P04626). The description is as above.
The target in assay [17] is rHuman Notch-1/Fc Chimera, CF (R&D Systems Cat#3647-TK) (human) (UniProt P46531). The assay is described as above.
Assay [18] concerns the target rHuman P-Cadherin/Fc Chimera, CF (R&D Systems Cat#861-PC) (human) (UniProt P22223). The description is as above.
Assay [19] deals with rHuman IGF-1 sR, CF (R&D Systems Cat#391-GR) (human) (UniProt P08069). The assay is described as above.
The target in assay [20] is rHuman EGF R/Fc Chimera, CF (R&D Systems Cat#344-ER) (human) (UniProt P00533). The experiment in a line: ECL multispot (MSD) binding assay, antigen spotted on plate, Fab in solution; blank spot 237.
Assay [21] addresses rHuman HGF R/c-MET/Fc Chimera, CF (R&D Systems Cat#358-MT/CF) (human) (UniProt P08581). The description is as above.
Assay [22] addresses rHuman CD44/Fc Chimera, CF (R&D Systems Cat#3660-CD) (human) (UniProt P16070). Described as above.
In assay [23] the target is rHuman Erythropoietin R/Fc Chimera, CF (R&D Systems Cat#963-ER) (human) (UniProt P19235). The assay is described as above.
Assay [24] has as its target rHuman ErbB2/Fc Chimera, CF (R&D Systems Cat#1129-ER) (human) (UniProt P04626). Described as above.
Assay [25] concerns the target rHuman Notch-1/Fc Chimera, CF (R&D Systems Cat#3647-TK) (human) (UniProt P46531). The description is as above.
Assay [26] concerns the target rHuman P-Cadherin/Fc Chimera, CF (R&D Systems Cat#861-PC) (human) (UniProt P22223). The assay is described as above.
Assay [27] has as its target rHuman IGF-1 sR, CF (R&D Systems Cat#391-GR) (human) (UniProt P08069). The description is as above.
Assay [28] addresses rHuman EGF R/Fc Chimera, CF (R&D Systems Cat#344-ER) (human) (UniProt P00533). The assay is described as follows: ECL multispot (MSD) binding assay, antigen spotted on plate, Fab in solution; blank spot 215.
Assay [29] concerns the target rHuman HGF R/c-MET/Fc Chimera, CF (R&D Systems Cat#358-MT/CF) (human) (UniProt P08581). The description is as above.
In assay [30] the target is rHuman CD44/Fc Chimera, CF (R&D Systems Cat#3660-CD) (human) (UniProt P16070). The assay is described as above.
In assay [31] the target is rHuman Erythropoietin R/Fc Chimera, CF (R&D Systems Cat#963-ER) (human) (UniProt P19235). The description is as above.
In assay [32] the target is rHuman ErbB2/Fc Chimera, CF (R&D Systems Cat#1129-ER) (human) (UniProt P04626). The assay is described as above.
In assay [33] the target is rHuman Notch-1/Fc Chimera, CF (R&D Systems Cat#3647-TK) (human) (UniProt P46531). The assay is described as above.
Assay [34] concerns the target rHuman P-Cadherin/Fc Chimera, CF (R&D Systems Cat#861-PC) (human) (UniProt P22223). Described as above.
Assay [35] has as its target rHuman IGF-1 sR, CF (R&D Systems Cat#391-GR) (human) (UniProt P08069). The description is as above.
The target in assay [36] is rHuman EGF R/Fc Chimera, CF (R&D Systems Cat#344-ER) (human) (UniProt P00533). The experiment in a line: ECL multispot (MSD) binding assay, antigen spotted on plate, Fab in solution; blank spot 277.
In assay [37] the target is rHuman HGF R/c-MET/Fc Chimera, CF (R&D Systems Cat#358-MT/CF) (human) (UniProt P08581). The assay is described as above.
Assay [38] has as its target rHuman CD44/Fc Chimera, CF (R&D Systems Cat#3660-CD) (human) (UniProt P16070). Described as above.
Assay [39] addresses rHuman Erythropoietin R/Fc Chimera, CF (R&D Systems Cat#963-ER) (human) (UniProt P19235). Described as above.
The target in assay [40] is rHuman ErbB2/Fc Chimera, CF (R&D Systems Cat#1129-ER) (human) (UniProt P04626). The assay is described as above.
Assay [41] deals with rHuman Notch-1/Fc Chimera, CF (R&D Systems Cat#3647-TK) (human) (UniProt P46531). The description is as above.
Assay [42] concerns the target rHuman P-Cadherin/Fc Chimera, CF (R&D Systems Cat#861-PC) (human) (UniProt P22223). The description is as above.
For assay [43], the target named is rHuman IGF-1 sR, CF (R&D Systems Cat#391-GR) (human) (UniProt P08069). The description is as above.

Regarding “Fab VH5-51_IGHD5-18*01>3_IGHJ4*01 G100K/G104T (KT) & V3-4_IGLJ1*01”, the ECL signal came to 768 in assay [1]; 867 in assay [2]; 540 in [3]; 1100 in assay [4]; 437 in assay [5]; 781 in assay [6]. Also, the ECL signal is 633 in assay [7]; 964 in [8]; 1070 in [9]; 579 in assay [10]; 877 in assay [11]; 1100 in assay [12].

As to “Fab VH5-51_IGHD5-18*01>3_IGHJ4*01 G100K/G104T D57A & V3-4_IGLJ1*01”, the ECL signal in assay [13] was found to be 915; in assay [14], 1130; in assay [15], 600; in assay [16], 1200; in [17] it was 523; in assay [18] it was 365. The same substance registered an ECL signal in assay [19] of 982.

Consider “Fab VH5-51_IGHD5-18*01>3_IGHJ4*01 G100K/G104T I50A & V3-4_IGLJ1*01”, for which the ECL signal in [20] is 794; in assay [21] it was 822; in [22] it was 632; in [23], 523; in assay [24], 925; in assay [25], 443. For the same substance, the ECL signal came to 343 in assay [26] and 785 in assay [27].

In the case of “Fab VH5-51_IGHD5-18*01>3_IGHJ4*01 G100K/G104T I51A & V3-4_IGLJ1*01”, the ECL signal came to 803 in assay [28]; 875 in [29]; 517 in assay [30]; 497 in assay [31]; 1090 in assay [32]; 612 in assay [33]. Moreover, the ECL signal came out at 432 in [34] and 828 in assay [35].

For the substance “Fab VH5-51_IGHD5-18*01>3_IGHJ4*01 G100K/G104T Y52A & V3-4_IGLJ1*01”, the ECL signal in assay [36] was found to be 745; in assay [37] it was 803; in [38], 591; in assay [39], 584; in [40] it was 989; in assay [41] it was 566. In addition, the ECL signal in assay [42] worked out at 334; in assay [43] it was 827.
